Measurements taken from patent publication US20150344570A1 (published 2015).

T1: FcγRIIa R extracellular domain with C-terminal His tag (human, UniProt P12318 34-217)
T1 construct: extracellular domain; also called FcgRIIa R; 2aR; not shown: His tag at the C terminus
T1 sequence (looked up): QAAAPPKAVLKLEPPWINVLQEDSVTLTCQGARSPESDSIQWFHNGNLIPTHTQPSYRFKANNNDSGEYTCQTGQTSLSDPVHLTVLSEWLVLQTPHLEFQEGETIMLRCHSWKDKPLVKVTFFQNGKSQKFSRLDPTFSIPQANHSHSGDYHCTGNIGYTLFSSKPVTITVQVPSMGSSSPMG

B1: GpH7-A5/GpH7-B3 variant S239_10E/GpL16-k0 (antibody, human IgG1, kappa)
heavy 1: not shown
heavy 2: not shown
light: DIVMTQSPLSLPVTPGEPASISCQASESLVHSNRNTYLHWYLQKPGQSPQLLIYKVSNRFSGVPDRFSGSGSGTDFTLKISRVEAEDVGVYYCSQNTHVPPTFGQGTKVEIERTVAAPSVFIFPPSDEQLKSGTASVVCLLNNFYPREAKVQWKVDNALQSGNSQESVTEQDSKDSTYSLSSTLTLSKADYEKHKVYACEVTHQGLSSPVTKSFNRGEC
notes: heterodimerized: alteration in one H chain only; also called He Ab S239_10E
B2: GpH7-A5/GpH7-B3 variant S337_19Q/GpL16-k0 (antibody, human IgG1, kappa)
heavy 1: not shown
heavy 2: not shown
light: B1 light
notes: heterodimerized: alteration in one H chain only; also called He Ab S337_19Q
B3: GpH7-A5/GpH7-B3 variant S337_03V/GpL16-k0 (antibody, human IgG1, kappa)
heavy 1: not shown
heavy 2: not shown
light: B1 light
notes: heterodimerized: alteration in one H chain only; also called He Ab S337_03V
B4: GpH7-A5/GpH7-B3 variant S337_20W/GpL16-k0 (antibody, human IgG1, kappa)
heavy 1: not shown
heavy 2: not shown
light: B1 light
notes: heterodimerized: alteration in one H chain only; also called He Ab S337_20W
B5: GpH7-A5/GpH7-B3 variant T335_07I/GpL16-k0 (antibody, human IgG1, kappa)
heavy 1: not shown
heavy 2: not shown
light: B1 light
notes: heterodimerized: alteration in one H chain only; also called He Ab T335_07I
B6: GpH7-A5/GpH7-B3 variant S337_15Y/GpL16-k0 (antibody, human IgG1, kappa)
heavy 1: not shown
heavy 2: not shown
light: B1 light
notes: heterodimerized: alteration in one H chain only; also called He Ab S337_15Y
B7: GpH7-A5/GpH7-B3 variant S324_06M/GpL16-k0 (antibody, human IgG1, kappa)
heavy 1: not shown
heavy 2: not shown
light: B1 light
notes: heterodimerized: alteration in one H chain only; also called He Ab S324_06M
B8: GpH7-A5/GpH7-B3 variant S337_06M/GpL16-k0 (antibody, human IgG1, kappa)
heavy 1: not shown
heavy 2: not shown
light: B1 light
notes: heterodimerized: alteration in one H chain only; also called He Ab S337_06M
B9: GpH7-A5/GpH7-B3 variant T335_10E/GpL16-k0 (antibody, human IgG1, kappa)
heavy 1: not shown
heavy 2: not shown
light: B1 light
notes: heterodimerized: alteration in one H chain only; also called He Ab T335_10E
B10: GpH7-A5/GpH7-B3 variant S337_09D/GpL16-k0 (antibody, human IgG1, kappa)
heavy 1: not shown
heavy 2: not shown
light: B1 light
notes: heterodimerized: alteration in one H chain only; also called He Ab S337_09D
B11: GpH7-A5/GpH7-B3 variant T335_05P/GpL16-k0 (antibody, human IgG1, kappa)
heavy 1: not shown
heavy 2: not shown
light: B1 light
notes: heterodimerized: alteration in one H chain only; also called He Ab T335_05P
B12: GpH7-A5/GpH7-B3 variant S337_18N/GpL16-k0 (antibody, human IgG1, kappa)
heavy 1: not shown
heavy 2: not shown
light: B1 light
notes: heterodimerized: alteration in one H chain only; also called He Ab S337_18N
B13: GpH7-A5/GpH7-B3 variant S239_18N/GpL16-k0 (antibody, human IgG1, kappa)
heavy 1: not shown
heavy 2: not shown
light: B1 light
notes: heterodimerized: alteration in one H chain only; also called He Ab S239_18N
B14: GpH7-A5/GpH7-B3 variant S298_08L/GpL16-k0 (antibody, human IgG1, kappa)
heavy 1: not shown
heavy 2: not shown
light: B1 light
notes: heterodimerized: alteration in one H chain only; also called He Ab S298_08L
B15: GpH7-A5/GpH7-B3 variant S267_09D/GpL16-k0 (antibody, human IgG1, kappa)
heavy 1: not shown
heavy 2: not shown
light: B1 light
notes: heterodimerized: alteration in one H chain only; also called He Ab S267_09D
B16: GpH7-A5/GpH7-B3 variant S337_10E/GpL16-k0 (antibody, human IgG1, kappa)
heavy 1: not shown
heavy 2: not shown
light: B1 light
notes: heterodimerized: alteration in one H chain only; also called He Ab S337_10E
B17: GpH7-A5/GpH7-B3 variant S337_16H/GpL16-k0 (antibody, human IgG1, kappa)
heavy 1: not shown
heavy 2: not shown
light: B1 light
notes: heterodimerized: alteration in one H chain only; also called He Ab S337_16H
B18: GpH7-A5/GpH7-B3 variant S267_03V/GpL16-k0 (antibody, human IgG1, kappa)
heavy 1: not shown
heavy 2: not shown
light: B1 light
notes: heterodimerized: alteration in one H chain only; also called He Ab S267_03V
B19: GpH7-A5/GpH7-B3 variant T335_02A/GpL16-k0 (antibody, human IgG1, kappa)
heavy 1: not shown
heavy 2: not shown
light: B1 light
notes: heterodimerized: alteration in one H chain only; also called He Ab T335_02A
B20: GpH7-A5/GpH7-B3 variant S267_19Q/GpL16-k0 (antibody, human IgG1, kappa)
heavy 1: not shown
heavy 2: not shown
light: B1 light
notes: heterodimerized: alteration in one H chain only; also called He Ab S267_19Q
B21: GpH7-A5/GpH7-B3 variant S267_06M/GpL16-k0 (antibody, human IgG1, kappa)
heavy 1: not shown
heavy 2: not shown
light: B1 light
notes: heterodimerized: alteration in one H chain only; also called He Ab S267_06M
B22: GpH7-A5/GpH7-B3 variant S337_07I/GpL16-k0 (antibody, human IgG1, kappa)
heavy 1: not shown
heavy 2: not shown
light: B1 light
notes: heterodimerized: alteration in one H chain only; also called He Ab S337_07I
B23: GpH7-A5/GpH7-B3 variant T335_13S/GpL16-k0 (antibody, human IgG1, kappa)
heavy 1: not shown
heavy 2: not shown
light: B1 light
notes: heterodimerized: alteration in one H chain only; also called He Ab T335_13S

These binders were tested against T1, FcγRIIa R extracellular domain with … (assay: SPR (Biacore), relative FcγRIIa R binding, GpH7-A5/GpH7-B3/GpL16-k0 = 100).

| He/Con_2aR | Binder |
| --- | --- |
| 135 % of control | B1 |
| 106 % of control | B2 |
| 106 % of control | B3 |
| 110 % of control | B4 |
| 109 % of control | B5 |
| 105 % of control | B6 |
| 123 % of control | B7 |
| 105 % of control | B8 |
| 111 % of control | B9 |
| 115 % of control | B10 |
| 104 % of control | B11 |
| 107 % of control | B12 |
| 111 % of control | B13 |
| 105 % of control | B14 |
| 173 % of control | B15 |
| 112 % of control | B16 |
| 109 % of control | B17 |
| 116 % of control | B18 |
| 102 % of control | B19 |
| 135 % of control | B20 |
| 122 % of control | B21 |
| 109 % of control | B22 |
| 110 % of control | B23 |
